Assay: label from the status in PepcDB records
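Also: failed if final PepcDB status was selected cloned or expressed and not failed if soluble or beyond.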

| Sequence | protein production |
| --- | --- |
| MSNELPAVICLVGPTGAGKTAAALHLAERFAGTVINADSRQVYRDFPIITAQPTAEEQAQCPHRLYGFLETEARMSAGVWGDHATAAIDEALAQGRLPLLVGGTGMYVRALLDGIAAIPAIPRDIHVRWQERCAAEGPQRLHAMLCDIDAEYAARIHPNDRQRVTRALEVHEHTGRTFSEWHRSAMPAPRYRALRIGFAATLDALTPRLAHRIDLMLAAGALDEARRARVHCDDPSAPGWSGIGCAETYAHLVGSLDYEAMRHVWLHNTRAYAKRQLTWFRADTRLTWYAPDDVEGIALGVASFLRGGA | failed |
| MKMKLLILAVLPFLTPINMNSQEEKASWVQYVNPLIGTEVWQSGVAVAGHEDPSGYTFPGVTEPFGMTEWTAHTLESKHAGTLHHRVPYWYKHNYISGFMGTHYPSGAVMFDYGAVELMPVVGQLKCRPEERSSSFTHITEKSKPHFYEVMLDDYQVKAQLSATKTSAILQFTYPQSDSAYVVVDAMPSMFTAGAPGYIHIDPVRKEISGKSIQSARGYRETGYFVVRFDKDFDSFGTFNLNNDYPEVIEEKYLFTQKEGKWVNGLKGIYTQDSKGVGHLRSEKIDPVIDFDWDWYKPADDFSFNDYQVTWSGKLKAPSTGEYTLGIQADDGARLYINGELLIDDWKSHSFSYQPTQKKISLEAGKMYDIKLEYYQHEWSSRIKLSWIRPDKKSSTSLLTGNRHLESSTKIGGYIRFKTGKNEVIKAIVGTSFISVEQARINLEREIGAKSMETISAQTEALWNKELSVIDLPGATEQDKIVFYTALYHSFLLPRSLSEDGKYRSPFDGKVHKGISFTDYSIWDTFRATHPLFVLLKPDFAGDLITGLLHAYDEGGWLPKWPNPGYTNCMMGTHSDAIIADAYVKGVRNFDVEKAKKAVLKNAYEKGNHIAWGRLGIMDYERLGYVPVDKYGESVARTMEFAYDDYCLSRFFAEKGEPDLSDKLGKRSKNFRNVLDKETKMVRARKADGSWSNPEDYDISVWSGFNPKGVYNYKKNYTLFVPHDVPELIRFLGGTDSLAVFMDELFDKDIYYVGDEFVMHAPYMYNLCKRPWMTQKRIYDIVNKYYLPTPSGLPGNDDCGQLSSWYIFSAMGFYPMCPASIEYQLGVPCLPGFVLHLPQNRTFTIKTKNFGKGNCYVRAVYLNGKPHRSSVITHSDIINGGEILFELTDKPAYNWFQ | failed |
| MSQDLIRAAFEKRLSDWAKARTPALPVAWQNTKFTPPAAGVYLRAYVMPAATISRDAAGDHRQYRGVFQVNVVMPIGDGSRSAEQVAAELDALFPVNLVMQSGGLAVRVRTPISNGQPTTGDADHTVPISLGYDVQFYPE | not failed |
| MLRAIYRALWWLVAPLAVLRLVWRSRKERGYREHIGERFGFGPGRALARRIDEATPVVWVHAVSVGETRAAQPLVDALLRARPDVHVLLTHMTPSGRATGEQIFGERVSRCYLPYDLPHAVRRFLRAWRPSLGLVMETEVWPTLIDECRRADVPLVLTNARMSARSFGRAAKFGAAAREVFGGFSRVLAQSPADAERLTALGARNVAVLGNLKFDMTTPPELAARGRAWRAAIGERPVWVAASTRDGEEALVLDAFAALRTPDALLILVPRHPQRFAEVAALVERRGLRHARRTEWAADAAAAAAGGPAAPALPPDVAVLLGDSMGELGAYYAAADVAFIGGSLLPLGGQNLIEACAVGVPVLIGPHVFNFTQATADAVTAGACAQVQDPADLARTLDALFADHARRAAMGAAGAAFAARHRGATARTVDVLNALLPPPRVASSANDEGEAGGLDAGTAID | failed |
| MDFGTQGPQAPAELAWLRGVDAYTMGAYPQAEEEFRAAVRIDPTMADGWLGLHALRVDTTNALLRMFRNRDRFGEQRARHRRTLNSWYWLGWWVQPVLENPRDLLLAHASHWLDGRHVPELDRALAGLPPVDSDAQVRFLHACRAYLVKDWEQLVRHTDPLLGDPLLGIEAGLFSGMARVRLEMYGQAEPLLSAALMRCRSEQPQRKELRYWLARAHEGTGRSAAALPLYRAVHRVDPAFMDTSARLAAIAEGDGYDDPADLTGYAQAGAGTDGLDGLDPLFGTEERGVKVSAPEPALSAPLPPLGGPSVREKAGGPDPSLPSGPTDPALLEEALAELERMVGLEPVKRQVKALSAQLNMARLRAGQGLPVQPPKRHFVFSGPSGTGKTTVARILGRVFYALGLLGGDHLVEAQRADLVGEYLGQTAVKANELIDSALGGVLFVDEAYSLSNSGYGKGDAYGDEALQVLLKRAEDNRDHLVVILAGYPEGMDRLLGANPGLSSRFTTRVDFPSYRPLELTSIGEVLAAENGDVWDEEALDELRSIAGHVVDQGWIDELGNGRFLRTLYEKSCAYRDLRLSVYPGALTRDDLATLRLPDLMQAYGEVLSGRGPGGPSAG | failed |
| MVITNFLILLLGLVFLVKGSDYFVKSASSIAKKLGISEFIIGLTLVAVGTSIPELASSMAASIQQASGIVIGNVVGSNIANIGLIVGIAAFLSPMKTEVEMLRRDGYIMLFAALLFFAFALNGELSKIEAGLFLLLYIAYTFFLFEETDKHEGKLYFKEFIKYFVKFQYINSARQKINGINNGVSRTNGDSGNKNCQPKNSFSKDILALILSCAAIIIGAKYFVSESIFFAELLGIPDTIIGTTLVAIGTSLPELAVTVSAARQGYGNIALGNIIGSNITNILMILGVSGLLFPIAVAEISLVFTAPVMIFISVVLLIFISTGWEIKRWEGAALMSLYAAFLFVLFRIS | failed |
| MKFSFHTCESNYFKDPFFYIMLSISILFSYLFSYYTILKYVSLNATAYDLGIYVSILENTMHGHVMYANPLLINSFSEHFSPFLFVIYPIYWFFPYVKTLLIMQSVMISFSGLVIYLLAREIFFINNFKKDILLEMLALFISTSYILSPYIESPLSFDFHLMPFLILFVPLSFYFFMKKYKILNLIVLILIISLHSLFVIMVFFIISYQFIFRIRNEGNLNCHKIIRTIANINISDNLKKTPKSKYVLQKIVRSKTLIKIIITLILLVGYLYFASLMKTFIASGAVALSPPSTMSTGSVSSSLAGLFTDLFTRPMLIESAFLINFPDKIIFAFYAFANTGFLVFLDPLSLLMDIPYFLYAYLSSYGPYYSLGYQYSTMIIPFIFIGALFGIRKIVQSARATDSDDVRRTIKKILVGVISIVIVSSLFELPLDPISPRNIFIESGSMANFHEFAYNNGSEIAFELQKEIGESDPYLLTINNLYPVFAKDTNAYVIAFAWNSQLRNLIYGYHIEYLVNQPDSFWSNQFNPSMNDLIDNNTFISHYGVYMESFGQDGVIVYKLNYTGLPVLMIPYSAYLPATSFYIAAGEYNYSIVNGSYVYHNTTMGTAWFGPYTTLLPGRYNITYYLESVNSEANSSILLDVTTNAGTVTLNQTVINSSELPNGDLEEVTLHLTLNETKYSVEFRGMAIDWTGTLIFKGVKYSVY | failed |
| MSVKAYLELIRVHNVVGSAVSAFMGYVIATTWKFTPLFFLPLLVVSLIAAGGYVINDVYDIEVDKINKPERPLPSGRIAVNIARRFSIVLFAVGLIISIPLGLIPFGFALITIVLLYEYARSLKKLGLVGNFIVALTSALSAYYGGLASGSLLGNFIIPTIYIFFFTLSREFVKGIEDIEGDKRNGVNTLAVKLGEKSTWIIAKIILGILIFTSPLPYFLGFNVIYLIGILALDVLLVYILILHNTIESATKARSLMKIYAIGTLIVFTLGSLRI | failed |
| MTVITLMLVLFEVVFSVSIYRYYYNGIVQYIESHAKTSTRFFSEYNSLYFIRLQEYSGDIISSFQLEGTELQLIDRHGSVIQSSSGEKVEGKVNIPQSLLEGEMYNQVTTKGNKKQLEVLSPLIHQGQTIGVLKYTTVLTNVNKKIIEIITFTISVGIVISGVVFLISRRLANSFVEPIESIIQASSQIAEGTLKQKIKEDYPGELGDLAHSLNYMAYKIDKAEQMKNEFIASISHEIRTPLTGIKGWSETLKTVDHLTEEEIKQGMGIISGETDRLIHLVEELLDFSRLQSNHFNLYKQKVQLYDILEETIWQLTPKSEEKEIQFITTIDRMELMGDRNRLKQVFLNIVQNAIKYSHKKSTIHIEATKIEGQAVIKVRDEGIGIAKEHLPYIEQSFYQINNHAAGAGIGLAIVKKMVELHSGVLSVTSKEGIGTTILIKLPL | failed |
| MKVPKYQLIQNDLRQQIVSGKFENGDKFYTESELTKLFNVSSITVIRAVNELVKDGYLVRQQGKGTFVSRSRKGRLVEFSDIEIFPMDKDKVTVLSCEKGNKPDILEKLNLDKNEFYYKIVRVRAAEDTPYIFHNSYIPQRYIQNPDAPLEHYQSIYQRFKLDYNIHMSEEPFVETNEIVSPCPKEVATHLKLKATEPAVLQNKTTTNSTSGEVMEYTETYKHWKYYKFEITANHR | not failed |
| MKIDKLFIKSIILTFLSMNLLFMILIMLGDLFVNLLNYLEKNIGLKDILYIYYLYLPKAFSDGVALSFLFAISNLIGNLSMRNEIIGLFSCGVPLTRILKPIILISIFISVVLFFFDNYLVIDTIARRDVLIKNSIGDSRSGDKTIIIRDFAREIYNIKSYDIDENTFANLMIIIKDNKDEFQTRYDINKAEWKDNKWRLYGIREFVKVGKKIKENAYDVLDGTGIIKLAPDYIRTVMLSSKALNFTKLINWISFLKAERLNYSDAFFDLLNRIFFSFRLILLSFTVGFIALALKKNIFILSLLNSIAFAVVYVISIVIFNFLADLGYLHIYIASSFTTIFFLIINFFVYRIVRK | failed |
| MVITGKFAMYVTAFVVTVSLIEAFVLWRKRRDGVKPFSWNEVWLSLADLAGRKLSVLLPLSLAAPVFSFAWDHRLFTITLNSALAVFLLFVGQEFCYYWYHRAAHRIRFFWATHAVHHSPNQLTLTSAYRLGWTGKLTGSAVFFAPLVLLGVRPEVVLATLSLNLLYQFWLHNDWMPKLGWFEYVFNTPSAHRVHHASNIDYLDANYGGVLIIFDRLFGTYVEERADEPCRYGLVHPTTTQNPIVNQFEHWVSLGRDMASASKLWHAAAYLIMPPGWAPNGKGTTTEILRRQQEELRQAGWQRPGVV | failed |
| INVRLKFLNDTEELAVARPEDTVGTLKSKYFPGQESQMKLIYQGRLLQDPARTLSSLNITNNCVIHCHRSPPGAAVSGPSAS | not failed |
| MTHPATVYSLSTRLLHWSMAFCFIGAIVLAYFVIWVLGHDHPQRLPVLNLHWVLGLLVGLLLVPRIVSRLRGPRLPAVPGTPLEHRLAHYAHLSLYALMLVMPLTGYVGTRLPTDFGLFVVPSFKDTALFAWISQTLNLSWEAFEKPFDAVHRVVGLWLSTSVVLLHALAAGYHQWVRRDGTLERMLGRRQRR | failed |
| MSETITFPPLMTGEAAGPGQDPFDLACQKAELGVDAGLVVYELGTDVLRAALVLAPEVPLAKAMAMLPVCGVGFQNALGALAPPEVAVHLDWNGALRINGARCGRLRIAASTDDPDTQPDWLVVGLDLPLWPEGDGGETPDETALYAEGCADVAAPRLLESWARHCLHWINRWDEGELETIHGEWRGLAHGMGEARTEAGRSGTFLGVDEDFGMLLRDETTTHLIPLTTVLVQD | not failed |
| MSKFKSHNSNNTKQTINKHALIFGLISVFLSGIGFTIISPVIPFLVQPYINNPGNQAIIVTLLTSVYAICMFFSAPGLGALSDKYGRRPVLLVCLLGSSIGYLIFGIGGALWVLFAGRIIDGITGGTISTIFAYFADIIPENERTKYFGWVSAVVGVGTIIGPTLGGLLAKFGYSVPLYFGAIITLLNVVYGFFFMPESLDKNIRLKEITFVRLNPFTQLANLLSIKSLKRLLISAFLLWIPNGSLQAVFSQFTIDTFSWKPAIIGLMFSIMGFQDIISQSLIMPKLLVKLSDKYIAILGMISEVIGYSLIAASALFYFYPLFIAGMFIFGFGDSIFGPSFNGMLSKSVDSSEQGRIQGGSQSIQALARMIGPIIGGQIYVSLGHATPAFMGIVLITVAIPVLYKNIHINI | failed |

Reference: a protein production outcome set (Wang et al. 2014)
